Laboratory results as given in the supplement of paper PMC10126150.
± gives the standard deviation of the averaged measurements.

tested on: ATP; assay: switch fluorescence ratio, 500 uM ATP over buffer (Cy3 cluster intensity, sum of 5 cycles each) (fold (ratio)); higher = stronger signal-on switching upon ATP binding; sequences stand for … in TCGTCGGCAGCGTCAGATGTGTATAAGAGACAGTTTTTTTTTTTTTTTTTTTTTTTTT…TC; conditions: aptamer strand: ATP DNA aptamer (quencher-CACCTGGGGGAGTATTGCGGAGGAAGG + anchor), 100 nM annealed; ATP concentration: 500 uM
In short: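 Imaging in selection buffer was followed by imaging after 15 min with 500 uM ATP at 22 °C, for Cy3-labelled switching-strand clusters annealed to 100 nM quencher-labelled ATP aptamer on a modified Illumina MiSeq flow-cell. Five of these buffer/ATP cycles ran, separated by NaOH stripping and re-annealing. The fluorescence ratio per cluster is summed target-cycle over summed buffer-cycle Cy3 intensity, averaged per switch-domain sequence; clusters outside 100-1000 RFU were removed.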
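Further: ATP exposure 15 min at 22 °C before imaging.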

ATAAGTCACG and TAGAAGGAAT are within error of each other in switch fluorescence ratio: 1.06 ± 0.028 for the first, 1.05 ± 0.044 for the second.

TTAGTAAGGT and AAATAATTGC are the same in switch fluorescence ratio: 1.01 ± 0.059 for the first, 1.01 ± 0.038 for the second.

TGGGTTCTAT and TGTTCTCAAA are within error of each other in switch fluorescence ratio: 0.9874 ± 0.0077 for the first, 0.98346 ± 0.00079 for the second.

TGATTTTTTA and GGGGGTTATG are within error of each other in switch fluorescence ratio: 0.992 ± 0.025 for the first, 1.01 ± 0.024 for the second.

Going from CATTGGGTTT to TCGAGGCACT, the switch fluorescence ratio rises from 0.975 ± 0.052 to 1.28 ± 0.17.

Compared with AATGCGTGGC, TAAGCTTAGT is lower in switch fluorescence ratio: 1.0436 ± 0.00057 for the first, 1.001 ± 0.0065 for the second.

CGCGGGGAAG and TGTTGTGGGA are within error of each other in switch fluorescence ratio: 0.98 ± 0.053 for the first, 0.979 ± 0.019 for the second.

TTATCTGTTG and ATAACGTAGC are within error of each other in switch fluorescence ratio: 1 ± 0.058 for the first, 1.11 ± 0.059 for the second.

AGGTGGGGAT and TTTCGAGGCT are within error of each other in switch fluorescence ratio: 0.994 ± 0.021 for the first, 0.976 ± 0.019 for the second.

AATTCCGATA and TAGATGCCAG are within error of each other in switch fluorescence ratio: 1.02 ± 0.026 for the first, 1.07 ± 0.039 for the second.

Compared with GCGAGGGCAA, GAGGGTTTTA is lower in switch fluorescence ratio: 1.72 ± 0.052 for the first, 1 ± 0.016 for the second.

TAATGCATTT and TTTTGAAAAG are the same in switch fluorescence ratio: 1.01 ± 0.017 for the first, 1.01 ± 0.019 for the second.

TTGTTGAAAC and GGTGGGATTC are within error of each other in switch fluorescence ratio: 1.03 ± 0.085 for the first, 1.01 ± 0.014 for the second.

Compared with ATTGGGGGGA, CTGCGAATAA is higher in switch fluorescence ratio: 0.982 ± 0.018 for the first, 1.4 ± 0.098 for the second.

First: TTCTCGCTGG
Second: GACGTAATTA
The switch fluorescence ratio of the first is lower: 1 ± 0.041 for the first, 1.5 ± 0.045 for the second.

TGTTTCGGAA and ACTCTGGGGT are within error of each other in switch fluorescence ratio: 1.02 ± 0.038 for the first, 1.03 ± 0.015 for the second.

ACTTGAAAAT and ATGTTTTGTA are the same in switch fluorescence ratio: 1.002 ± 0.0095 for the first, 1 ± 0.0053 for the second.

Going from CTTCGCCTTT to CATGGTTGGT, the switch fluorescence ratio falls from 1.06 ± 0.016 to 0.969 ± 0.025.

Compared with GCTTTCCTTA, GAAACATACG is higher in switch fluorescence ratio: 0.991 ± 0.04 for the first, 1.33 ± 0.026 for the second.

TCGGTTCAGC and CGAGCTGTTT are within error of each other in switch fluorescence ratio: 1.011 ± 0.0024 for the first, 1.02 ± 0.0099 for the second.

TTTATCCGCG and ATAGTAGGGG are within error of each other in switch fluorescence ratio: 1.25 ± 0.25 for the first, 0.994 ± 0.045 for the second.

Compared with TCCGGGGCGG, AAGATCTTAT is lower in switch fluorescence ratio: 1.11 ± 0.06 for the first, 1.01 ± 0.031 for the second.

CAGGGAAGGG and ATAGTGCTTG are within error of each other in switch fluorescence ratio: 1.01 ± 0.049 for the first, 0.988 ± 0.046 for the second.

TTAAGTTGGT and GATTGGGCTT are within error of each other in switch fluorescence ratio: 0.997 ± 0.045 for the first, 0.998 ± 0.0097 for the second.

Compared with AAAGTTTCCG, AAGTTAAAAG is lower in switch fluorescence ratio: 1 ± 0.0018 for the first, 0.975 ± 0.012 for the second.

GGGTACTTAG and AAAATCAGCG are within error of each other in switch fluorescence ratio: 1.05 ± 0.041 for the first, 1 ± 0.051 for the second.

Going from GTTTGTCTGC to TTACCCAGAG, the switch fluorescence ratio rises from 0.963 ± 0.025 to 1.1 ± 0.064.

ATTTAATTAC and TTTTAGTACA are within error of each other in switch fluorescence ratio: 1.02 ± 0.0013 for the first, 1 ± 0.048 for the second.

AGCGGCCCGG and TGATCCTTGG are within error of each other in switch fluorescence ratio: 1.02 ± 0.017 for the first, 1.03 ± 0.031 for the second.

ATATGGTCTA and CCGGGTTCGC are within error of each other in switch fluorescence ratio: 0.999 ± 0.053 for the first, 0.998 ± 0.083 for the second.

GGTTTGTAGG and GAGATGGGCA are within error of each other in switch fluorescence ratio: 0.954 ± 0.02 for the first, 1.01 ± 0.06 for the second.

TGTGTGCAAT and AGGTGAGGCA are within error of each other in switch fluorescence ratio: 1.0784 ± 0.001 for the first, 1.05 ± 0.097 for the second.

ATTCGTTTGC and TAGGTAAATT are within error of each other in switch fluorescence ratio: 1 ± 0.057 for the first, 1.02 ± 0.054 for the second.

Going from CCTGTTTCAG to CGTCTAATAG, the switch fluorescence ratio rises from 1.05 ± 0.018 to 1.18 ± 0.03.

TATTGATAGC and CGAGGGCCGG are within error of each other in switch fluorescence ratio: 1.014 ± 0.0083 for the first, 0.9974 ± 0.0081 for the second.

First: GGTGTGTGTT
Second: GAGACCAATC
The switch fluorescence ratio of the first is lower: 0.9951 ± 0.0078 for the first, 1.023 ± 0.008 for the second.

GCTGGGACTT and TCAGAGGGCA are the same in switch fluorescence ratio: 1.004 ± 0.0078 for the first, 1 ± 0.053 for the second.

CAAGATTGGA and GCTTATTGTA are within error of each other in switch fluorescence ratio: 0.961 ± 0.025 for the first, 0.9813 ± 0.0081 for the second.

TAGGGGGCGG and TTCGTTGGCT are within error of each other in switch fluorescence ratio: 0.988 ± 0.03 for the first, 1.16 ± 0.23 for the second.

TTTTTTGACG and TTGCCTAATG are within error of each other in switch fluorescence ratio: 0.9938 ± 0.0062 for the first, 0.972 ± 0.035 for the second.

TAGACTGGTG and ATGGTCGTCG are within error of each other in switch fluorescence ratio: 1.01 ± 0.017 for the first, 0.9939 ± 0.0035 for the second.

First: AAGGACGGTG
Second: CTTTGTTGG
The switch fluorescence ratio of the first is higher: 1.0045 ± 0.00079 for the first, 0.9646 ± 0.0024 for the second.

GTGGACATTA and ATAACACTTC are within error of each other in switch fluorescence ratio: 1.01 ± 0.012 for the first, 1.03 ± 0.015 for the second.

Going from TCCGGGGTCG to TTTATGCACC, the switch fluorescence ratio rises from 1.034 ± 0.0062 to 1.07 ± 0.017.

GGGTGCGGGC and ATGGATACGG are within error of each other in switch fluorescence ratio: 1.04 ± 0.098 for the first, 1.02 ± 0.011 for the second.

TAAGTATGCC and GAGAAGGGCA are within error of each other in switch fluorescence ratio: 0.963 ± 0.06 for the first, 1.02 ± 0.05 for the second.

CTAGGGGGGC and GGTATTGGCA are within error of each other in switch fluorescence ratio: 1 ± 0.093 for the first, 0.996 ± 0.022 for the second.

CGAAAAATGG and TTAACCGGGA are within error of each other in switch fluorescence ratio: 1.04 ± 0.046 for the first, 1.02 ± 0.059 for the second.

TTGCGGTGTG and GCGCGTAGGC are the same in switch fluorescence ratio: 1 ± 0.024 for the first, 1 ± 0.021 for the second.

TTGCAGGTGG and TCAGTCAGCT are within error of each other in switch fluorescence ratio: 1.03 ± 0.011 for the first, 1 ± 0.039 for the second.

AAAAAGGGAA and TCATTTTTTT are within error of each other in switch fluorescence ratio: 0.986 ± 0.02 for the first, 0.997 ± 0.036 for the second.

ACATGATTGC and CGTTTACTTA are within error of each other in switch fluorescence ratio: 1.029 ± 0.0054 for the first, 1.02 ± 0.02 for the second.

TTCCTTTTAA and TTATGTCAGA are within error of each other in switch fluorescence ratio: 1.04 ± 0.055 for the first, 0.987 ± 0.034 for the second.

Going from ATTGGGGTTC to CGGCAGTATC, the switch fluorescence ratio rises from 1.01 ± 0.067 to 1.51 ± 0.12.

GGGGGAAAG and TGATAGTGAT are within error of each other in switch fluorescence ratio: 1 ± 0.025 for the first, 0.988 ± 0.024 for the second.

TGGAATTGTT and AACGGTTGCG are within error of each other in switch fluorescence ratio: 1 ± 0.026 for the first, 0.965 ± 0.016 for the second.

GACAGGGAAC and CGGGGGAAGT are within error of each other in switch fluorescence ratio: 1.01 ± 0.021 for the first, 0.981 ± 0.068 for the second.

ATTTGTATGT and ATGGAGAAAG are within error of each other in switch fluorescence ratio: 0.963 ± 0.013 for the first, 1.02 ± 0.059 for the second.

TATATAGGGG and CGGGGATTGA are within error of each other in switch fluorescence ratio: 1 ± 0.026 for the first, 0.97 ± 0.03 for the second.

ATGGGTGTGC and GCATTATAT are within error of each other in switch fluorescence ratio: 1 ± 0.034 for the first, 1.03 ± 0.023 for the second.

TTAAGGGCAG and GTATGTAGGG are within error of each other in switch fluorescence ratio: 1.01 ± 0.03 for the first, 0.995 ± 0.015 for the second.

Going from TACCCATTAC to GGTCCATGCT, the switch fluorescence ratio falls from 1.72 ± 0.041 to 0.961 ± 0.032.

Compared with ATTGTTACGG, ATGGGGAATA is higher in switch fluorescence ratio: 0.998 ± 0.024 for the first, 1.03 ± 0.0059 for the second.

CGTATTTGTA and TTAAGTGCCC are within error of each other in switch fluorescence ratio: 1.01 ± 0.028 for the first, 1 ± 0.021 for the second.

TCTGGTGCAT and CGACTTTCAA are within error of each other in switch fluorescence ratio: 1.17 ± 0.14 for the first, 1.05 ± 0.032 for the second.

GAGGTGTGAC and ATAGGGGGTA are within error of each other in switch fluorescence ratio: 1.01 ± 0.039 for the first, 1 ± 0.015 for the second.

AGCTTTTGGG and TATGTAGTCG are within error of each other in switch fluorescence ratio: 0.979 ± 0.071 for the first, 1.02 ± 0.038 for the second.

Compared with TTTGAGGTAA, AGCCTGTTTT is lower in switch fluorescence ratio: 1.008 ± 0.0083 for the first, 0.9861 ± 0.0011 for the second.

GTGGGTATGG and GAGATAGAGG are within error of each other in switch fluorescence ratio: 1.002 ± 0.01 for the first, 1.006 ± 0.0087 for the second.

AAGACTTGTG and GGGGGGTCTA are within error of each other in switch fluorescence ratio: 0.981 ± 0.019 for the first, 1.02 ± 0.024 for the second.

Compared with TTCGAGCATT, GGGGCCACGC is lower in switch fluorescence ratio: 1.39 ± 0.17 for the first, 1.01 ± 0.034 for the second.

AACTTTAGGG and GGTAAGATAG are within error of each other in switch fluorescence ratio: 0.997 ± 0.039 for the first, 1.01 ± 0.017 for the second.

Compared with GGTACTTGGG, CATTGGGGGT is higher in switch fluorescence ratio: 0.984 ± 0.033 for the first, 1.04 ± 0.021 for the second.

AACTTGGGTG and TAGTTAATCA are within error of each other in switch fluorescence ratio: 1.02 ± 0.035 for the first, 0.991 ± 0.01 for the second.

GGGAGGGGCG and GGATAGAGGA are within error of each other in switch fluorescence ratio: 1 ± 0.023 for the first, 1.01 ± 0.02 for the second.

CGCGCGTCGG and TTGCGTACGG are within error of each other in switch fluorescence ratio: 0.978 ± 0.021 for the first, 1.01 ± 0.053 for the second.

In the case of AGTAACGCTT, the switch fluorescence ratio is reported as 1.008 ± 0.01.
